From PMC4239642, “trans-Acting Arginine Residues in the AAA+ Chaperone ClpB Allosterically Regulate the Activity through Inter- and Intradomain Communication*” (The Journal of Biological Chemistry, 2014)

B1: full-length ClpB P221C (natural protein, Thermus thermophilus, UniProt Q9RA63 1-854, looked up)
chain: MNLERWTQAAREALAQAQVLAQRMKHQAIDLPHLWAVLLKDERSLAWRLLEKAGADPKALKELQERELARLPKVEGAEVGQYLTSRLSGALNRAEALMEELKDRYVAVDTLVLALAEATPGLPGLEALKGALKELRGGRTVQTEHAESTYNALEQYGIDLTRLAAEGKLDPVIGRDEEIRRVIQILLRRTKNNPVLIGEPGVGKTAIVEGLAQRIVKGDVCEGLKGKRIVSLQMGSLLAGAKYRGEFEERLKAVIQEVVQSQGEVILFIDELHTVVGAGKAEGAVDAGNMLKPALARGELRLIGATTLDEYREIEKDPALERRFQPVYVDEPTVEETISILRGLKEKYEVHHGVRISDSAIIAAATLSHRYITERRLPDKAIDLIDEAAARLRMALESAPEEIDALERKKLQLEIEREALKKEKDPDSQERLKAIEAEIAKLTEEIAKLRAEWEREREILRKLREAQHRLDEVRREIELAERQYDLNRAAELRYGELPKLEAEVEALSEKLRGARFVRLEVTEEDIAEIVSRWTGIPVSKLLEGEREKLLRLEEELHKRVVGQDEAIRAVADAIRRARAGLKDPNRPIGSFLFLGPTGVGKTELAKTLAATLFDTEEAMIRIDMTEYMEKHAVSRLIGAPPGYVGYEEGGQLTEAVRRRPYSVILFDEIEKAHPDVFNILLQILDDGRLTDSHGRTVDFRNTVIILTSNLGSPLILEGLQKGWPYERIRDEVFKVLQQHFRPEFLNRLDEIVVFRPLTKEQIRQIVEIQLSYLRARLAEKRISLELTEAAKDFLAERGYDPVFGARPLRRVIQRELETPLAQKILAGEVKEGDRVQVDVGPAGLVFAVPARVEA
notes: ClpB from Thermus thermophilus, full-length protein; source: E. coli BL21 (DE3) RIL, purified
B2: ClpB NBD1-M P221C (domain or fragment, Thermus thermophilus, UniProt Q9RA63 141-534, looked up)
chain: VQTEHAESTYNALEQYGIDLTRLAAEGKLDPVIGRDEEIRRVIQILLRRTKNNPVLIGEPGVGKTAIVEGLAQRIVKGDVCEGLKGKRIVSLQMGSLLAGAKYRGEFEERLKAVIQEVVQSQGEVILFIDELHTVVGAGKAEGAVDAGNMLKPALARGELRLIGATTLDEYREIEKDPALERRFQPVYVDEPTVEETISILRGLKEKYEVHHGVRISDSAIIAAATLSHRYITERRLPDKAIDLIDEAAARLRMALESAPEEIDALERKKLQLEIEREALKKEKDPDSQERLKAIEAEIAKLTEEIAKLRAEWEREREILRKLREAQHRLDEVRREIELAERQYDLNRAAELRYGELPKLEAEVEALSEKLRGARFVRLEVTEEDIAEIVSRWT
notes: ClpB from Thermus thermophilus, NBD1 and M-domain, amino acids 141-534; source: E. coli BL21 (DE3) RIL, purified
B3: cross-linked NBD1-M dimer wild-type (P221C/M394C disulfide) (complex)
chain 1: B2 chain
chain 2: not shown
modifications: intermolecular disulfide bond between P221C of this chain and M394C of the other chain | intermolecular disulfide bond between M394C of this chain and P221C of the other chain
notes: ClpB from Thermus thermophilus, NBD1 and M-domain, amino acids 141-534; also called cross-linked wild-type dimer; P221C/M394C dimer; source: E. coli BL21 (DE3) RIL, purified; the two cysteine variants oxidised with copper phenanthroline, dimer separated on Superdex 200
B4: ClpB NBD1-M R323A (domain or fragment)
chain: not shown
notes: ClpB from Thermus thermophilus, NBD1 and M-domain, amino acids 141-534; also called single mutant R323A; source: E. coli BL21 (DE3) RIL, purified
B5: ClpB NBD1-M R322A (domain or fragment)
chain: not shown
notes: ClpB from Thermus thermophilus, NBD1 and M-domain, amino acids 141-534; also called single mutant R322A; source: E. coli BL21 (DE3) RIL, purified
B6: ClpB NBD1-M R322A/R323A (domain or fragment)
chain: not shown
notes: ClpB from Thermus thermophilus, NBD1 and M-domain, amino acids 141-534; also called double mutant; source: E. coli BL21 (DE3) RIL, purified
B7: ClpB NBD1-M wild type (domain or fragment)
chain: not shown
notes: ClpB from Thermus thermophilus, NBD1 and M-domain, amino acids 141-534; also called unlinked NBD1-M wild type; ClpB construct comprising residues 141-534; source: E. coli BL21 (DE3) RIL, purified
B8: ClpB NBD1-M Q184C (domain or fragment)
chain: not shown
notes: as for B2

Tests used:
full-length ClpB M394C = target: T1, full-length ClpB M394C (Thermus thermophilus, UniProt Q9RA63 1-854, M394C); test: cross-linking; intermolecular disulfide between two single-cysteine variants, 50 μM each, 50 μM copper phenanthroline, 2 mM ADP, 50 mM Tris/HCl pH 7.5, 50 mM KCl, 5 mM MgCl2, 1 h at 37 °C; dimer separated on Superdex 200 26/60, non-reducing SDS-PAGE; conditions: both partners purified
T1 construct: ClpB from Thermus thermophilus, full-length protein; source: E. coli BL21 (DE3) RIL, purified

ClpB NBD1-M M394C = target: T2, ClpB NBD1-M M394C (Thermus thermophilus, UniProt Q9RA63 141-534, M394C); test: as above; conditions: both partners purified
T2 construct: ClpB from Thermus thermophilus, NBD1 and M-domain, amino acids 141-534; source: E. coli BL21 (DE3) RIL, purified

[1] = target: the molecule itself; test: SEC-MALS; Superdex 200 10/300 GL with multiangle static light scattering (SLS), buffer A (50 mM Tris/HCl pH 7.5, 50 mM KCl, 5 mM MgCl2, 2 mM EDTA); running buffer nucleotide-free or with 2 mM ADP or 2 mM ATP; 40 μl of 100 μM injected, about 2 μM at the detector; self-association induced by nucleotide
[2] = target: the molecule itself; test: dynamic light scattering; 1–30 μM protein (monomeric units) in buffer A with 2 mM ATP and an ATP-regenerating system (phosphoenolpyruvate, pyruvate kinase); self-association
ClpB NBD1-M A390C = target: T3, ClpB NBD1-M A390C (Thermus thermophilus, UniProt Q9RA63 141-534, A390C); test: cross-linking; intermolecular disulfide between two single-cysteine variants, 50 μM each, 50 μM copper phenanthroline, 2 mM ADP, 50 mM Tris/HCl pH 7.5, 50 mM KCl, 5 mM MgCl2, 1 h at 37 °C; dimer separated on Superdex 200 26/60, non-reducing SDS-PAGE; conditions: both partners purified
T3 construct: ClpB from Thermus thermophilus, NBD1 and M-domain, amino acids 141-534; source: E. coli BL21 (DE3) RIL, purified

| Binder | stoichiometry N [2] | further results |
| --- | --- | --- |
| B1 |  | binding result (full-length ClpB M394C): binds |
| B2 |  | binding result (ClpB NBD1-M M394C): binds |
| B3 |  | stoichiometry N [1]: ~4 NBD1-M subunits (two cross-linked dimers) |
| B4 | 2 |  |
| B5 | 2 |  |
| B6 | 2 |  |
| B7 | 3 |  |
| B8 |  | binding result (ClpB NBD1-M A390C): binds |
